Test results reported in article PMC8861115, “Characterization and structural analyses of a novel glycosyltransferase acting on the β-1,2-glucosidic linkages” (The Journal of Biological Chemistry, 2022).

Molecular target: the molecule itself
Test: SEC; Superdex 200 10/300 GL, 0.5 mg in 500 μl loaded, 5 mM MOPS pH 7.5, 100 mM ammonium sulfate, 1 mM DTT; calibrated with standard proteins

B1: IALB_1185 protein from Ignavibacterium album (IaSGT), wild type, recombinant (enzyme)
chain: MKPHNSEKYFVKNGQPHFLISGEVHYFRINPKLWRNHLQLLKQTGADTVSTYIPWDWHEIEEDDFDFEGKTHPARNLIRFIKLCKEENLDLIVKPGPYILAEYENQGLPSWLLKKLSKNAFALDENGNVISPDLVSYLSDEFLEYTFKWYDKVMPIISKHQKEHYGPITMMQLCNEIGVFQWLSGKSDYNPKVINLYKEFIIQRYKTIEKLNSVYSTNYNSFDDLKAPSGKIKLRSDYCAYFDFHLFFREYYNKYISILKNKIRSFGINIKLTHNIPGWIYGNASELPMLISTYSEIMKNHPDIIFGLDHIPEFVSFRNAHSDLACNKILEAMQPEAPVWAAEFQAGTREHHVKAYAKDLETFYIASLAHGIKGFNYYMFSQGINPEGKGFYGKTFYFQTALDAASNKLALYDSIKKVNRFIRKEQKDLLRTNVNSEICVGFYKPYFFTELISSQLLKEKKLNVEELGLYIDPRFLREEILFNGLLRGLQTLNYNYDVVDLENCDLKSLTAYKQLWITSAEFMDAETQNLLSEFVLNGGNLILYPAVPTLDNYLNRCEILKNNFGIEFITKDSSHKVSAFGIEDVFTAFSKKQIYNDTNSKPIAFTQENEICGIRKKIGKGELTILGFAFGYTSDEHLELIDKLVKLNKIKRELFVSDKDIQFVVRENNKSRYIFFLNYHNERKTFNYRKSSELKKKKSEEISIAPFSYKVIKENK
notes: IALB_1185 protein (GH35), Ignavibacterium album DSM19864, gene ialb_1185 amplified from genomic DNA and inserted into the NdeI and XhoI sites of pET30a(+); domains in the structure: TIM barrel 6-432, Rossmann fold 438-648, Ig-like 653-716; theoretical molecular mass of the recombinant protein 84,709.883; Surmise: cloning into NdeI/XhoI of pET30a(+) would give a C-terminal His6 tag; A …
  stoichiometry N: 2
